Laboratory results: publication PMC4931921

T1: IFIT5 (Homo sapiens, UniProt Q13325 1-482)
T1 sequence: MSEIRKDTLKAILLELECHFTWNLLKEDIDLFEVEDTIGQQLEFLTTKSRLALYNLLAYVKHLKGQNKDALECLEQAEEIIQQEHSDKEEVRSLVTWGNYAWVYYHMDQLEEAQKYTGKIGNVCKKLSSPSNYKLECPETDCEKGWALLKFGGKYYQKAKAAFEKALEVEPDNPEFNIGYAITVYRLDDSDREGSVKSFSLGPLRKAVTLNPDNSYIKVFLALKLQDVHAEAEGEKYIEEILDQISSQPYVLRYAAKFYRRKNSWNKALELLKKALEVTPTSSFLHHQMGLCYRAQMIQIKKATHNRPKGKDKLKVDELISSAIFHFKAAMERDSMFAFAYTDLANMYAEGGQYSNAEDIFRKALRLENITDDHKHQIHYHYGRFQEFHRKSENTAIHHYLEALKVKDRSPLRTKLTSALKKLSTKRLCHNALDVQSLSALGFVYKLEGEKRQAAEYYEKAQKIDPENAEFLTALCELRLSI

T2: IFIT3 (Homo sapiens, UniProt O14879 1-490)
T2 sequence: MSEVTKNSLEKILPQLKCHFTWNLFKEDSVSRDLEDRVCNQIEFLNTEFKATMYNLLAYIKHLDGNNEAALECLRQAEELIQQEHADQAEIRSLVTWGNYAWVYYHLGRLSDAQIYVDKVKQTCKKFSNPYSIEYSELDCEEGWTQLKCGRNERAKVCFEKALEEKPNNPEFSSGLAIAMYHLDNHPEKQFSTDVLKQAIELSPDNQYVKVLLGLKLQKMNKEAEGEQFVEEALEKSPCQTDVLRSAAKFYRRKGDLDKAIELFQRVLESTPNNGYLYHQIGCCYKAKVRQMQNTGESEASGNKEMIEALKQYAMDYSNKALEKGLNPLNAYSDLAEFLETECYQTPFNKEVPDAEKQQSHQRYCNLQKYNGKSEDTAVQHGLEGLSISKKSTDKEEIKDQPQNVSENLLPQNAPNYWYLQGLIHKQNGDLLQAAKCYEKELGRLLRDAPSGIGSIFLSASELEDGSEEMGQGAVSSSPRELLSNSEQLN

T3: IFIT1 (Homo sapiens, UniProt P09914 1-478)
T3 sequence: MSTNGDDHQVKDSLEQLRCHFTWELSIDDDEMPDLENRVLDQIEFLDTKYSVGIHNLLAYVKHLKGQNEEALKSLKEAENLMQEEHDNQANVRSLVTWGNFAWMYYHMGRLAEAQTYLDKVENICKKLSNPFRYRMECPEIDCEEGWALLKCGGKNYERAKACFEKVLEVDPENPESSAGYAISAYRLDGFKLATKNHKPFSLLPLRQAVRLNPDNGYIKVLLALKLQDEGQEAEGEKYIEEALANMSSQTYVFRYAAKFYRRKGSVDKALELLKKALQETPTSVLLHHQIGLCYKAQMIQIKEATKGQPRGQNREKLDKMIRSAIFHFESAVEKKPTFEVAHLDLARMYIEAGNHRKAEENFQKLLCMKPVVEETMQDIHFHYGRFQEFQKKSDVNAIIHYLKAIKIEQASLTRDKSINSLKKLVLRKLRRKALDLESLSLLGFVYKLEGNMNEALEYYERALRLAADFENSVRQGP


What was measured:
[1] = biological target: T1, IFIT5; assay: crystal structure 2.5 A
[2] = biological target: T1, IFIT5; assay: crystal structure 1.86 A
[3] = biological target: T1, IFIT5; assay: EMSA
[4] = biological target: T2, IFIT3; assay: EMSA
[5] = biological target: T3, IFIT1; assay: EMSA
[6] = biological target: T1, IFIT5; assay: crystal structure 2.0 A

Row | Binder | binding result [3] | binding result [4] | binding result [5] | also measured
1 | AAAA (ssRNA, 5'-triphosphate) [PPP-oligo-A] |  |  |  | binding result [1]: binds
2 | CCCC (ssRNA, 5'-triphosphate) [PPP-oligo-C] |  |  |  | binding result [2]: binds
3 | PPP-3nt (dsRNA, 5'-triphosphate on strand 1) RNA 1: GGGAGAGAGAGAGAGAGAGUAAGGGCGUCGUCGCCCCGAGAAUU RNA 2: ACUCUCUCUCUCUCUCU | binds | no binding |  | 
4 | PPP-5nt (dsRNA, 5'-triphosphate on strand 1) RNA 1: GGGAGAGAGAGAGAGAGAGUAAGGGCGUCGUCGCCCCGAGAAUU RNA 2: ACUCUCUCUCUCUCU |  |  | binds | 
5 | GGGAGAGAGAGAGAGAGAGUAAGGGCGUCGUCGCCCCGAGAAUU (ssRNA, 5'-triphosphate) [PPP-ss (44nt PPP-ssRNA)] | binds | no binding | binds | 
6 | UUU (ssRNA, 5'-triphosphate) [PPP-oligo-U] |  |  |  | binding result [6]: binds
